# From patent US20170183404A1 (VIB VZW, published 2017)
# Columns and labels:
# [1] = biological target: T1, truncDelta mMor1 reconstituted in liposomes (mouse, UniProt P42866 52-358); assay: ELISA (OD405), five-fold diluted periplasm, 10 µM Dmt1-Dalda; reference: mock liposomes
# T1 construct: The assayed protein lacks the N-terminal part before the TEV site and the C-terminal part after the 3C site; It was purified, doped with Dmt1-Dalda and reconstituted in DOPC/CHS/lipid A vesicles; also called truncDelta mMor1 liposome; recombinant mMOR1 reconstituted in liposomes
# T1 sequence (P42866 52-358, tags or fused parts left off): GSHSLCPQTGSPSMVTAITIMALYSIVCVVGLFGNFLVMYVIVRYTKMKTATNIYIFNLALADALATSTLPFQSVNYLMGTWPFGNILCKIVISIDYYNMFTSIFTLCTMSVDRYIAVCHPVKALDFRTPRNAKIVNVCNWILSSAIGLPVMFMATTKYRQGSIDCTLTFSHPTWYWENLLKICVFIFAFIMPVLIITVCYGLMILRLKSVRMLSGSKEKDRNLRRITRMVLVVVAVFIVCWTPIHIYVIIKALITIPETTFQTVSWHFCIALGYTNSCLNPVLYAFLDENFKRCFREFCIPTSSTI
# Description: DNPP (Sigma, cat nr 71768) was used to develop the colorimetric signal. Absorbance was measured at OD405 nm and results are depicted in FIG. 6. […] All VHHs tested confirm specific binding to truncDelta mMor1 reconstituted in liposomes. As truncDelta mMor1 is truncated at its N- and C-terminus, most likely these VHHs interact with extracellular or intracellular Mor1 conformational epitopes.
# [2] = biological target: T2, wild-type human Mor1 (human mu-type opioid receptor) (human, UniProt P35372 1-400); assay: displacement of 1 nM [3H]-diprenorphine from WT hMor1/CHO membranes by a concentration range of XA8635
# T2 construct: Used as CHO membranes (Perkin Elmer ES-542-M400UA) in the radioligand assay and on transfected CHO cells in flow cytometry; also called WT hMor1/CHO; hMor1/CHO
# T2 sequence (P35372 whole entry): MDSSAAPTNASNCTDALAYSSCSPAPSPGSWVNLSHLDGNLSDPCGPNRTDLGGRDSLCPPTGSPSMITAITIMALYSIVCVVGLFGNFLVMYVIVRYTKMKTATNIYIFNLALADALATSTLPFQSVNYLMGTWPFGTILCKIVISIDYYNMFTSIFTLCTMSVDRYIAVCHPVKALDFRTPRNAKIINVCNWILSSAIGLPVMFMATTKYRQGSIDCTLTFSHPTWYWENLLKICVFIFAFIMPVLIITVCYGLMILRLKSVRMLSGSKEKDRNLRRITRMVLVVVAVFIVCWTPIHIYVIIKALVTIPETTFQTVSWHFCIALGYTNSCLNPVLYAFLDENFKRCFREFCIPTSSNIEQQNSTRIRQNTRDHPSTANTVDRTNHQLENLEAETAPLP
# Description: The mixture was incubated for 1 hour at RT and after washing, filter bound radioligand was measured.
Binder,absorbance on truncDelta mMor1 liposomes relative to mock liposomes [1],binding result [2]
"XA8635 (VHH, Tested as periplasmic extract and as purified protein; also called 601H10; monovalent XA8635) VHH: QVQLVESGGGLVQAGGSLRLSCAASGSISSISTMGWYRQAPGNERELVAAITSGGSTNYADSVKGRFTISRDNAKNTVYLQMNSLKPEDTAVYYCNFKYYSGSYFYKSEYDYWGQGTQVTVSS",≥ 3 fold,binds
"XA8643 (VHH, Tested as periplasmic extract; also called 598G11; X8643) VHH: QVQLVESGGGLVRPGGSLRLSCVDSERTSYPMGWFRRAPGKEREFVASITWSGIDPTYADSVADRFTISRDVANNTLYLQMNSLKHEDTAVYYCAARAPVGQSSSPYDYDYWGQGTQVTVSS",≥ 3 fold,–
"XA8639 (VHH, also called 598A7; Nb39) VHH: QVQLVESGGGLVRPGGSLRLSCVDSERTSYPMGWFRRAPGKEREFVASITWSGIDPTYADSVADRFTTSRDVANNTLYLQMNSLKHEDTAVYYCAARAPVGQSSSPYDYDYWGQGTQVTVSS",≥ 3 fold,–
"XA8641 (VHH, Tested as periplasmic extract; also called 598A2; Profile I VHH) VHH: QVQLVESGGGLVRPGGSLRLSCVDSGRTSYPMGWFRRAPGKEREFVASITWSGIDPTYADSVADRFTISRDVANNTLYLQMNSLKHEDTAVYYCAARAPVGQSSSPYDYDYWGQGTQVTVSS",≥ 3 fold,–
"XA8727 (VHH, Tested as periplasmic extract; also called 599D2; Profile III VHH) VHH: QVQLVESGGGLVQAGGSLRLSCAASGFTFDDYAIAWFRQAPGKEREGVSCISSSDGSTYYADSVKGRFTISNDNAKNTVYLQMNSLKPEDTAVYYCAADLSRSCGRGYRYLEVWGQGTQVTVSS",≥ 3 fold,–
